In patent publication US20090075270A1:

What was measured:
[1] = target: Kid toxin (endoribonuclease) of the parD locus of E. coli plasmid R1 (Escherichia coli plasmid R1) (UniProt P13976); assay: cell-based or functional assay
[2] = target: T1, Kis antitoxin of the parD locus of E. coli plasmid R1 (wild type), P13975
T1 chain: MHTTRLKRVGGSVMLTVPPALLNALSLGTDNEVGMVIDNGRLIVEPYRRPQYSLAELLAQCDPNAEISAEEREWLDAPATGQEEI

Kis17, thermo-sensitive mutant Kis antitoxin (P18L) (from UniProt P13975 1-85)
repA/copB ratio by Real Time-PCR, kis17kid sample against kiskid sample [1]: 38%

B1: Kid toxin (endoribonuclease) of the parD locus of E. coli plasmid R1 (protein)
chain: MERGEIWLVSLDPTAGHEQQGTRPVLIVTPAAFNRVTRLPVVVPVTSGGNFARTAGFAVSLDGVGIRTTGVVRCDQPRTIDMKARGGKRLERVPETIMNEVLGRLSTILT
cleavage of dnaB mRNA in vitro by purified Kid (4 pmols), alone or with Kis (6 pmols); primer extension [2]: dnaB-mRNA is cleaved by Kid in vitro, and that this effect is inhibited when Kis is added to the reaction
